Measured values from patent US20140050720A1, “ULTRALONG COMPLEMENTARITY DETERMINING REGIONS AND USES THEREOF” (THE SCRIPPS RESEARCH INSTITUTE, priority 2012, published 2014).

Legend:
[1] = Pharmacokinetics of BLV1H12-bGCSF fusion antibodies in mice; type: in vivo; details: BALB/c mice, 70 μg injected
Description: For PK study in mice, 70 μg of the immunoglobulin constructs described herein were injected into 3 BALB/c mice per group. Blood samples were drawn from time 0 to 14 days with extended intervals and analyzed by ELISA using anti-human IgG Fc antibody with horseradish peroxidase (HRP) labeled (KPL) and anti-6×His antibody with HRP labeled (Clontech). Data were normalized by taking maximal concentration at the first time point (30 min).

[2] = system: mice neutrophils; assay: Neutrophils counts in mice; type: in vivo; details: mice blood, 10th day post-injection, neutrophils among white blood cells
Description: On the 10th day after injection of BLV1H12-bGCSF fusion antibodies into mice for PK study, blood samples were drawn from the mice and stained using the Diff Quick Staining Kit (Thermo Fisher Scientific, IL). Neutrophils and white blood cells were counted under microscope and the percentages of neutrophils were analyzed. FIGS. 12A-12B and Table 12 show proliferative activities of BLV1H12-bGCSF fusion antibodies on mice neutrophils that are blood stained and counted at the 10th day post-injection.

[3] = target: T1, GLP-1 receptor (GLP-1R) (Homo sapiens, UniProt P43220); assay: GLP-1R activation, cAMP responsive luciferase reporter in HEK293 cells; type: cell-based; details: HEK293 cells expressing GLP-1R, 24 h
T1 construct: expressed in transfected cells; host or cells: HEK293 cells expressing surface GLP-1R and a cAMP responsive luciferase reporter
Description: HEK293 cells expressing surface GLP-1R and cAMP responsive luciferase reporter gene were seeded in 384 well plates at a density of 5000 cells per well. […] Subsequently, luciferase assay was performed using One-Glo luciferase reagent according manufacture's instruction (Promega).
HEK293 cells expressing surface GLP-1R and cAMP responsive luciferase reporter gene were seeded in 384 well plates at a density of 5000 cells per well. After 24 h incubation at 37° C. with 5% CO2, cells were treated with various concentrations of peptides and BLV1H12-GLP-1 clip fusion proteins and incubated for another 24 h. Subsequently, luciferase assay was performed using One-Glo luciferase reagent according manufacture's instruction (Promega).

[4] = system: TF-1 cells; assay: Proliferation assay on TF-1 cells (AlamarBlue); type: cell-based; details: 72 h
Description: TF-1 cells were obtained from American Type Culture Collection (ATCC), VA, and cultured in RPMI-1640 medium supplemented with 10% fetal bovine serum (FBS), penicillin, streptomycin and 2 ng/mL granulocyte-macrophage colony-stimulating factor (GM-CSF). For proliferation assay, TF-1 cells were washed three times with RPMI-1640 medium and resuspended in RPMI-1640 medium with 10% FBS and penicillin and streptomycin at a density of 1.5×10^5 cells/ml. Cells were plated in 96-well plates and treated with varied concentrations of BLV1H12-hEPO fusion antibodies. After 72 h of incubation at 37° C. with 5% CO2, cells viabilities were measured using AlamarBlue (Invitrogen) assay following manufacture's instruction. FIG. 21 and Table 18 show the proliferative activity of Ab-hEPO fusion antibodies on TF1 cells.

[5] = system: human peripheral blood mononuclear cells (PBMCs); assay: Inhibition of human PBMC activation (secreted TNF-α ELISA); type: cell-based; details: PBMCs activated by anti-CD3 and CD28 antibodies, 24 h
Description: Human PBMCs were isolated from fresh venous blood of healthy donors through ficoll gradient centrifugation, followed by resuspension in RPMI1640 medium with 10% FBS and plating in 96-well plates at a density of 1×10^6 cells/mL. Human T cells were purified from the isolated PBMCs using T cell enrichment kit. Purified PBMCs and T cells were pretreated for 1 h at 37° C. with 5% CO2 with various concentrations of purified BLV1H12-Moka1 fusion antibodies and then activated by anti-CD3 and CD28 antibodies. After 24 h treatment, supernatant was collected for measurement of the levels of secreted TNF-α using ELISA kit.

[6] = system: Human mPB CD34+ cells; assay: Proliferative activity on human granulocyte progenitors (flow cytometry); type: cell-based; details: for Number of CD45RA− CD41−: 7 days
Description: Human mPB CD34^+ cells were purchased from AllCells. Cells were resuspended in HSC expansion medium (StemSpan SFEM, StemCell Technologies) supplemented with 1× antibiotics and the following recombinant human cytokines thrombopoietin, IL6, Flt3 ligand, and stem cell factor (100 ng/mL, R & D Systems), then plated in 96-well plates (1000 cells per well), with varied concentrations of BLV1H12-bGCSF fusion antibodies. Cells were cultured for 7 days at 37° C. in a 5% CO2 incubator, then analyzed by flow cytometry to measure cell number and expression of CD45ra and CD41. Cells were stained in staining medium (HBSS supplemented with 2% FBS and 2 mM EDTA) at 4° C. for 1 h with PECy7 anti-CD45ra and eFluor 450 anti-CD41 (eBiosciences), then washed with staining medium and analyzed. Multicolor analysis for cell phenotyping was performed on a LSR II flow cytometer (Becton Dickinson). FIGS. 10A-10E and Tables 9-10 show the human granulocyte progenitor cell proliferative activities of the Ab-GCSF fusion antibodies.

T1 sequence (P43220 24-463, species assumed): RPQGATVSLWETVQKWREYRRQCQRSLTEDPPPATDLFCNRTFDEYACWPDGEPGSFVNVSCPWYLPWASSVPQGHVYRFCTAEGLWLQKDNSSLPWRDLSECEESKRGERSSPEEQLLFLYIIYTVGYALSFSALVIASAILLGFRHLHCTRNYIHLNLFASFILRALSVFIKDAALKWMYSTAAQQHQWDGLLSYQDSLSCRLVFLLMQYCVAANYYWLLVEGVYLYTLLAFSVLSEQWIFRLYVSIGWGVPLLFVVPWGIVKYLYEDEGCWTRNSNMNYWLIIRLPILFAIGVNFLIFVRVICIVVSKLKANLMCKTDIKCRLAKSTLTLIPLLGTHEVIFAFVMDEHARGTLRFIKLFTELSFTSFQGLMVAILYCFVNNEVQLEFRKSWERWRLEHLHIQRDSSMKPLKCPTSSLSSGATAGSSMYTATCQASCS

B1: Ab: bovine BLV1H12 antibody with ultralong CDR3, no inserted polypeptide; heavy chain SEQ ID NO: 24, light chain SEQ ID NO: 23 (antibody)
heavy: QVQLRESGPSLVKPSQTLSLTCTASGFSLSDKAVGWVRQAPGKALEWLGSIDTGGNTGYNPGLKSRLSITKDNSKSQVSLSVSSVTTEDSATYYCTSVHQETKKYQSCPDGYRERSDCSNRPACGTSDCCRVSVFGNCLTTLPVSYSYTYNYEWHVDVWGQGLLVTVSS
light: QAVLNQPSSVSGSLGQRVSITCSGSSSNVGNGYVSWYQLIPGSAPRTLIYGDTSRASGVPDRFSGSRSGNTATLTISSLQAEDEADYFCASAEDSSSNAVFGSGTTLTVLGQPKSPPSVTLFPPSTEELNGNKATLVCLISDFYPGSVTVVWKADGSTITRNVETTRASKQSNSKYAASSYLSLTSSDWKSKGSYSCEVTHEGSTVTKTVKPSECS
- Percentage (normalized to maximal concentration at the first time point, 30 min) ([1]; day 0.021): 100.00%
- Percentage (normalized to maximal concentration at the first time point, 30 min) ([1]; day 0.042): 106.09%
- Percentage (normalized to maximal concentration at the first time point, 30 min) ([1]; day 0.083): 95.88%
- Percentage (normalized to maximal concentration at the first time point, 30 min) ([1]; day 0.125): 86.54%
- Percentage (normalized to maximal concentration at the first time point, 30 min) ([1]; day 0.250): 74.26%
- Percentage (normalized to maximal concentration at the first time point, 30 min) ([1]; day 1.000): 52.43%
- Percentage (normalized to maximal concentration at the first time point, 30 min) ([1]; day 2.000): 39.46%
- Percentage (normalized to maximal concentration at the first time point, 30 min) ([1]; day 3.000): 36.97%
- Percentage (normalized to maximal concentration at the first time point, 30 min) ([1]; day 8.000): 45.44%
- Percentage (normalized to maximal concentration at the first time point, 30 min) ([1]; day 10.000): 40.98%
- Percentage (normalized to maximal concentration at the first time point, 30 min) ([1]; day 14.000): 51.96%
- Percentage of Neutrophil [2]: 18.81
- RLU (luciferase reporter) ([3]; 1.26953 nM): 5200
- RLU (luciferase reporter) ([3]; 2.53906 nM): 5000
- RLU (luciferase reporter) ([3]; 5.07813 nM): 5600
- RLU (luciferase reporter) ([3]; 10.15625 nM): 5500
- RLU (luciferase reporter) ([3]; 20.3125 nM): 5380
- RLU (luciferase reporter) ([3]; 40.625 nM): 4600
- RLU (luciferase reporter) ([3]; 81.25 nM): 6140
- RLU (luciferase reporter) ([3]; 162.5 nM): 5760
- RLU (luciferase reporter) ([3]; 325 nM): 5600
- RLU (luciferase reporter) ([3]; 650 nM): 5800
- RLU (luciferase reporter) ([3]; 1300 nM): 14000
- F.I. (AlamarBlue, cell viability) ([4]; 0.00236 nM): 4274.07
- F.I. (AlamarBlue, cell viability) ([4]; 0.01178 nM): 4267.586
- F.I. (AlamarBlue, cell viability) ([4]; 0.05888 nM): 3905.529
- F.I. (AlamarBlue, cell viability) ([4]; 0.2944 nM): 4091.452
- F.I. (AlamarBlue, cell viability) ([4]; 1.472 nM): 4109.106
- F.I. (AlamarBlue, cell viability) ([4]; 7.36 nM): 4071.234
- F.I. (AlamarBlue, cell viability) ([4]; 36.8 nM): 4100.011
- F.I. (AlamarBlue, cell viability) ([4]; 184 nM): 4413.497
- F.I. (AlamarBlue, cell viability) ([4]; 4.71E−04 nM): 4223.257
- F.I. (AlamarBlue, cell viability) ([4]; 9.42E−05 nM): 4108.119
- F.I. (secreted TNF-α, ELISA) ([5]; 2 nM): 2334
- F.I. (secreted TNF-α, ELISA) ([5]; 20 nM): 2186
- F.I. (secreted TNF-α, ELISA) ([5]; 200 nM): 1982
- F.I. (secreted TNF-α, ELISA) ([5]; 400 nM): 1733
- human granulocyte progenitor cell proliferative activity [6]: lack of proliferative activity
- Number of CD45RA− CD41− ([6]; 0.28959 ng/mL): 3666
- Number of CD45RA− CD41− ([6]; 0.86877 ng/mL): 3839
- Number of CD45RA− CD41− ([6]; 2.60631 ng/mL): 3852
- Number of CD45RA− CD41− ([6]; 23.45679 ng/mL): 3519
- Number of CD45RA− CD41− ([6]; 70.37037 ng/mL): 3541
- Number of CD45RA− CD41− ([6]; 211.11111 ng/mL): 3606
- Number of CD45RA− CD41− ([6]; 5700 ng/mL): 4100
